pKd: −log10 of the molar value.
Columns and labels:
Assay in all cases: IEDB peptide-MHC binding, purified MHC/competitive/fluorescence; filed as Kd, often an IC50 or EC50 that approximates it; ≥ and ≤ were set here for values at or beyond the usual limits of such assays
Conditions in all cases: source organism: Plasmodium falciparum
HLA-A*02:01 = biological target: HLA-A*02:01
HLA-B*44:02 = biological target: HLA-B*44:02
HLA-A*24:02 = biological target: HLA-A*24:02
HLA-A*03:01 = biological target: HLA-A*03:01
HLA-A*01:01 = biological target: HLA-A*01:01
HLA-B*07:02 = biological target: HLA-B*07:02

Work on YLKKIQYSL yielded a pKd (HLA-A*02:01) of 5.59.
In the case of DENANANNA, the pKd (HLA-B*44:02) was at most 3.05.
For CKMEKCSSVF, the pKd (HLA-A*24:02) was at most 3.60.
KEYLNKIQNS was tested, and the pKd (HLA-B*44:02) was at most 4.00.
Sequence QLDYENDIEK has a pKd (HLA-A*03:01) of at most 4.00 and a pKd (HLA-A*01:01) of at most 3.14.
LDYANDIEK was tested, and the pKd (HLA-A*03:01) was at most 4.00.
For PSDKHIEQY, the pKd (HLA-A*01:01) was 5.70.
Sequence IEKKICKMEK has a pKd (HLA-A*03:01) of at most 4.00.
HITEYLKKI was tested, and the pKd (HLA-A*02:01) was at most 3.83.
With KPGSANKPKD the pKd (HLA-B*07:02) was at most 4.00.
For TEYLKKIQN, the pKd (HLA-B*44:02) was at most 4.00.
Work on NEEPSDKHIK yielded a pKd (HLA-A*01:01) of at most 4.00 and a pKd (HLA-B*44:02) of at most 4.00.
In the case of IQNSLSTEW, the pKd (HLA-A*24:02) was at most 4.67 and the pKd (HLA-B*44:02) was at most 3.87.
Work on NEEPSDQHI yielded a pKd (HLA-B*44:02) of at most 4.00.
KDELDYENDI showed a pKd (HLA-B*44:02) of at most 4.00.
For KPGSADKPKD, the pKd (HLA-B*07:02) was at most 4.00.
NPNANPNANP was tested, and the pKd (HLA-B*07:02) was at most 4.00.
CSSVFNVVN was tested, and the pKd (HLA-A*01:01) was at most 4.08.
Sequence PSDKHITEY has a pKd (HLA-A*01:01) of 5.57.
Work on NPNVDPNANP yielded a pKd (HLA-B*07:02) of at most 4.00.
Sequence NVDENANAN has a pKd (HLA-A*01:01) of at most 4.00.
SPCSVTCGNG was tested, and the pKd (HLA-B*07:02) was at most 4.00.
HIKEYLNKI was tested, and the pKd (HLA-A*02:01) was at most 3.59.
Sequence KMEKCSSVF has a pKd (HLA-B*07:02) of at most 4.00 and a pKd (HLA-A*01:01) of at most 4.00.
NPDPNANPNV showed a pKd (HLA-B*07:02) of at most 4.00.
Work on NPNANPNAN yielded a pKd (HLA-B*07:02) of at most 4.00.
For DELDYANDI, the pKd (HLA-B*44:02) was at most 3.56.
Work on SADKPKDQLD yielded a pKd (HLA-A*01:01) of 5.05.
Sequence RIKPGSANK has a pKd (HLA-A*03:01) of at most 4.67.
In the case of LIMVLSFLF, the pKd (HLA-A*24:02) was 4.71.
In the case of SVTCGNGIQV, the pKd (HLA-B*07:02) was at most 4.00 and the pKd (HLA-A*02:01) was at most 3.31.
NEEPSDKHI was tested, and the pKd (HLA-B*44:02) was at most 4.00.
CKMEKCSSV gave a pKd (HLA-A*02:01) of at most 4.00.
In the case of VTCGNGIQV, the pKd (HLA-A*03:01) was at most 4.00 and the pKd (HLA-A*01:01) was at most 4.00.
SVFNVVNSSI showed a pKd (HLA-B*07:02) of at most 4.00, a pKd (HLA-A*02:01) of at most 3.47 and a pKd (HLA-A*03:01) of at most 4.00.
YLKIIQNSL was tested, and the pKd (HLA-A*02:01) was 5.31.
NVDPNANPNV was tested, and the pKd (HLA-A*01:01) was at most 4.00.
In the case of STEWSPCSV, the pKd (HLA-A*01:01) was 5.50.
For MEKCSSVFN, the pKd (HLA-B*44:02) was at most 3.85.
NVDENANANN showed a pKd (HLA-A*01:01) of at most 3.18.
Work on MPNDPNRNV yielded a pKd (HLA-B*07:02) of at most 3.29 and a pKd (HLA-B*44:02) of at most 4.00.
Work on ELDYENDIEK yielded a pKd (HLA-A*01:01) of at most 4.00.
For EWSPCSVTCG, the pKd (HLA-A*24:02) was at most 3.16.
For NSSIGLIMV, the pKd (HLA-A*01:01) was at most 3.67.
Work on QVRIKPGSA yielded a pKd (HLA-B*07:02) of at most 3.87.
Work on LSTEWSPCS yielded a pKd (HLA-A*01:01) of at most 4.00.
For PSDKHIKEY, the pKd (HLA-A*01:01) was at most 4.60.
For TEWSPCSVT, the pKd (HLA-B*44:02) was at most 4.00.
RIKPGSADK was tested, and the pKd (HLA-A*03:01) was 4.75.
YLKKIQNSL was tested, and the pKd (HLA-B*07:02) was 5.04, the pKd (HLA-A*24:02) was 4.95 and the pKd (HLA-A*02:01) was 5.66.
IEQYLKKIQY showed a pKd (HLA-A*01:01) of at most 4.00 and a pKd (HLA-B*44:02) of at most 3.80.

— the Immune Epitope Database (IEDB)
